Reference: patent US5622930A, “C1 inhibitor muteins and uses thereof” (CLB, priority 1991, dated 1997)

B1: P3-arg: C1 inhibitor mutein with Arg substituted for Val at position 442 (P3) (protein, UniProt P05155 23-500, looked up, variant V442R)
Plasma protease C1 inhibitor: NPNATSSSSQDPESLQDRGEGKVATTVISKMLFVEPILEVSSLPTTNSTTNSATKITANTTDEPTTQPTTEPTTQPTIQPTQPTTQLPTDSPTQPTTGSFCPGPVTLCSDLESHSTEAVLGDALVDFSLKLYHAFSAMKKVETNMAFSPFSIASLLTQVLLGAGENTKTNLESILSYPKDFTCVHQALKGFTTKGVTSVSQIFHSPDLAIRDTFVNASRTLYSSSPRVLSNNSDANLELINTWVAKNTNNKISRLLDSLPSDTRLVLLNAIYLSAKWKTTFDPKKTRMEPFHFKNSVIKVPMMNSKKYPVAHFIDQTLKAKVGQLQLSHNLSLVILVPQNLKHRLEDMEQALSPSVFKAIMEKLEMSKFQPTLLTLPRIKVTTSQDMLSIMEKLEFFDFSYDLNLCGLTEDPDLQVSAMQHQTVLELTETGVEAAAASAISRARTLLVFEVQQPFLFVLWDQQHKFPVFMGRVYDPRA
B2: P3-thr: C1 inhibitor mutein with Thr substituted for Val at position 442 (P3) (protein, UniProt P05155 23-500, looked up, variant V442T)
Plasma protease C1 inhibitor: NPNATSSSSQDPESLQDRGEGKVATTVISKMLFVEPILEVSSLPTTNSTTNSATKITANTTDEPTTQPTTEPTTQPTIQPTQPTTQLPTDSPTQPTTGSFCPGPVTLCSDLESHSTEAVLGDALVDFSLKLYHAFSAMKKVETNMAFSPFSIASLLTQVLLGAGENTKTNLESILSYPKDFTCVHQALKGFTTKGVTSVSQIFHSPDLAIRDTFVNASRTLYSSSPRVLSNNSDANLELINTWVAKNTNNKISRLLDSLPSDTRLVLLNAIYLSAKWKTTFDPKKTRMEPFHFKNSVIKVPMMNSKKYPVAHFIDQTLKAKVGQLQLSHNLSLVILVPQNLKHRLEDMEQALSPSVFKAIMEKLEMSKFQPTLLTLPRIKVTTSQDMLSIMEKLEFFDFSYDLNLCGLTEDPDLQVSAMQHQTVLELTETGVEAAAASAISTARTLLVFEVQQPFLFVLWDQQHKFPVFMGRVYDPRA
B3: P3-gly: C1 inhibitor mutein with Gly substituted for Val at position 442 (P3) (protein, UniProt P05155 23-500, looked up, variant V442G)
Plasma protease C1 inhibitor: NPNATSSSSQDPESLQDRGEGKVATTVISKMLFVEPILEVSSLPTTNSTTNSATKITANTTDEPTTQPTTEPTTQPTIQPTQPTTQLPTDSPTQPTTGSFCPGPVTLCSDLESHSTEAVLGDALVDFSLKLYHAFSAMKKVETNMAFSPFSIASLLTQVLLGAGENTKTNLESILSYPKDFTCVHQALKGFTTKGVTSVSQIFHSPDLAIRDTFVNASRTLYSSSPRVLSNNSDANLELINTWVAKNTNNKISRLLDSLPSDTRLVLLNAIYLSAKWKTTFDPKKTRMEPFHFKNSVIKVPMMNSKKYPVAHFIDQTLKAKVGQLQLSHNLSLVILVPQNLKHRLEDMEQALSPSVFKAIMEKLEMSKFQPTLLTLPRIKVTTSQDMLSIMEKLEFFDFSYDLNLCGLTEDPDLQVSAMQHQTVLELTETGVEAAAASAISGARTLLVFEVQQPFLFVLWDQQHKFPVFMGRVYDPRA
B4: P3-ala: C1 inhibitor mutein with Ala substituted for Val at position 442 (P3) (protein, UniProt P05155 23-500, looked up, variant V442A)
Plasma protease C1 inhibitor: NPNATSSSSQDPESLQDRGEGKVATTVISKMLFVEPILEVSSLPTTNSTTNSATKITANTTDEPTTQPTTEPTTQPTIQPTQPTTQLPTDSPTQPTTGSFCPGPVTLCSDLESHSTEAVLGDALVDFSLKLYHAFSAMKKVETNMAFSPFSIASLLTQVLLGAGENTKTNLESILSYPKDFTCVHQALKGFTTKGVTSVSQIFHSPDLAIRDTFVNASRTLYSSSPRVLSNNSDANLELINTWVAKNTNNKISRLLDSLPSDTRLVLLNAIYLSAKWKTTFDPKKTRMEPFHFKNSVIKVPMMNSKKYPVAHFIDQTLKAKVGQLQLSHNLSLVILVPQNLKHRLEDMEQALSPSVFKAIMEKLEMSKFQPTLLTLPRIKVTTSQDMLSIMEKLEFFDFSYDLNLCGLTEDPDLQVSAMQHQTVLELTETGVEAAAASAISAARTLLVFEVQQPFLFVLWDQQHKFPVFMGRVYDPRA
B5: P3-leu: C1 inhibitor mutein with Leu substituted for Val at position 442 (P3) (protein, UniProt P05155 23-500, looked up, variant V442L)
Plasma protease C1 inhibitor: NPNATSSSSQDPESLQDRGEGKVATTVISKMLFVEPILEVSSLPTTNSTTNSATKITANTTDEPTTQPTTEPTTQPTIQPTQPTTQLPTDSPTQPTTGSFCPGPVTLCSDLESHSTEAVLGDALVDFSLKLYHAFSAMKKVETNMAFSPFSIASLLTQVLLGAGENTKTNLESILSYPKDFTCVHQALKGFTTKGVTSVSQIFHSPDLAIRDTFVNASRTLYSSSPRVLSNNSDANLELINTWVAKNTNNKISRLLDSLPSDTRLVLLNAIYLSAKWKTTFDPKKTRMEPFHFKNSVIKVPMMNSKKYPVAHFIDQTLKAKVGQLQLSHNLSLVILVPQNLKHRLEDMEQALSPSVFKAIMEKLEMSKFQPTLLTLPRIKVTTSQDMLSIMEKLEFFDFSYDLNLCGLTEDPDLQVSAMQHQTVLELTETGVEAAAASAISLARTLLVFEVQQPFLFVLWDQQHKFPVFMGRVYDPRA
B6: wild-type: wild type C1 inhibitor, plasma glycoprotein serine protease inhibitor with isoleucine and valine at positions 440 and 442 (protein, UniProt P05155 23-500, looked up)
Plasma protease C1 inhibitor: NPNATSSSSQDPESLQDRGEGKVATTVISKMLFVEPILEVSSLPTTNSTTNSATKITANTTDEPTTQPTTEPTTQPTIQPTQPTTQLPTDSPTQPTTGSFCPGPVTLCSDLESHSTEAVLGDALVDFSLKLYHAFSAMKKVETNMAFSPFSIASLLTQVLLGAGENTKTNLESILSYPKDFTCVHQALKGFTTKGVTSVSQIFHSPDLAIRDTFVNASRTLYSSSPRVLSNNSDANLELINTWVAKNTNNKISRLLDSLPSDTRLVLLNAIYLSAKWKTTFDPKKTRMEPFHFKNSVIKVPMMNSKKYPVAHFIDQTLKAKVGQLQLSHNLSLVILVPQNLKHRLEDMEQALSPSVFKAIMEKLEMSKFQPTLLTLPRIKVTTSQDMLSIMEKLEFFDFSYDLNLCGLTEDPDLQVSAMQHQTVLELTETGVEAAAASAISVARTLLVFEVQQPFLFVLWDQQHKFPVFMGRVYDPRA

What follows are molecules tested on C1s (assay: radioimmune assay of complex formation of C1 inhibitor muteins with solid phase C1s). Details: muteins altered only at P3 (position 442, substituted for Val), FIG. 3.
Format: binding
Text: FIG. 2 presents a generalized assay screening format for determining both the inhibitory (complex formation) or protease sensitivity (inactivation) of the C1 muteins. The latter measures inactivation of the C1 inhibitor muteins by non-target proteases. This procedure is also described by Eldering et al., 1988, in J. of Biological Chem., 263: 11776. Modifications of these methods are also known in the art.
Generally, inhibitor activity of C1 muteins may be determined by measuring complex formation between the C1 inhibitor and a substrate. The preferred substrates are, of course, C1s, Kallikrein, B-12a, and plasmin. The C1 inhibitor, or C1 inhibitor muteins, inhibit the protease activity of the substrate by forming a covalent bond with the substrate. These molecules were purified by techniques known in the art, or as described by Liebermann, H., etal., 1984, J. Mol. Biol., 177: 531 and Nuijens, J.,et al., 1987, Immunology, 61: 387.
The preferred assay is a radioimmune assay based on the observation that functional C1 inhibitor muteins bind to activated target substrate, such as C1s. The assay can be performed in several ways, but preferably purified activated C1s is coupled to a solid matrix, preferably Sepharose 4B via cyanogen bromide as is known in the art. Coupled C1s is incubated in an appropriately buffered solution containing, if desired, a small amount of detergent, preferably Tween-20. The latter is used at a concentration of about 0.1% (w/v). The capacity of the C1 inhibitor muteins to complex with the target substrate can be detected using anti-C1 inhibitor mutein antibody. Alternatively, a radiolabelled second antibody can be used to detect the bound first antibody. The antibody may be polyclonal or monoclonal and is incubated for a sufficient time to permit detectible binding of the antibody to the C1 inhibitor to occur. After the appropriate washing steps are conducted whereby non-specifically bound radiolabelled antibody is separated from antibody bound to C1 inhibitor muteins, the amount of radioactivity associated with the latter is determined. In this way, and incorporating the appropriate controls in the assay scheme, the inhibitory capacity of the C1 muteins is determined.
The general procedures for determining both the inhibitory or non-target protease sensitivity of the C1 inhibitor muteins are shown in FIG. 2. The procedures involving C1s will be described briefly, the procedures for the other substrates is similar with modifications as noted by Eldering, 1988, J. Biological Chem., 263: 11776, and as shown by Nuijens et al., above.
As mentioned above, the radioimmune assay to determine the C1 inhibitor activity of the various muteins is based on the observation that functional C1 inhibitor mutein will bind to activated C1s. Thus, purified activated C1s is coupled to CNBr Sepharose 4B and suspended in phosphate-buffered saline, pH 7.4 10 mM EDTA, and 0.1% (w/v) Tween-20. Next, 0.3 ml of this mixture containing 1.5 μg of activated C1s is incubated with various dilutions of the C1 inhibitor muteins for 5 hours. The Sepharose 4B beads are collected, extensively washed, and complexed C1 inhibitor mutein incubated (>4hours) with ^125 I-polyclonal anti-C1 antibody. The antibody is described by Hack, et al., above. The Sepharose beads are washed, and bound radioactivity determined using a LKB 1260 multigamma II gamma counter.
With B1 the “complex formation (inhibitory activity), order among P3 muteins” value (shortened to “complex formation (inhibitory activity)”) was “Arg=Gly<Ala<Leu<wild-type=Thr”.
B2 was tested, and the “complex formation (inhibitory activity)” value was “Arg=Gly<Ala<Leu<wild-type=Thr”.
For B3, the “complex formation (inhibitory activity)” value was “Arg=Gly<Ala<Leu<wild-type=Thr”.
With B4 the “complex formation (inhibitory activity)” value was “Arg=Gly<Ala<Leu<wild-type=Thr”.
With B5 the “complex formation (inhibitory activity)” value was “Arg=Gly<Ala<Leu<wild-type=Thr”.
B6 was tested, and the “complex formation (inhibitory activity)” value was “Arg=Gly<Ala<Leu<wild-type=Thr”.
